In patent US20260242478A1 (published 2026):

molecular target: T1, PSMA Fab (006 PSMA Fab); test: clonal phage ELISA on biotinylated PSMA Fab captured on neutravidin, blocking buffer alone, anti-M13 HRP detection;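 note: clonal phage were tested as crude supernatants, and the signal reflects phage still bound to the wells after washing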
T1 construct: also called Anti-PSMA Fab; anti-PSMA Fab
Experimental: (§1) Clonal phage were harvested as crude supernatants and screened via standard ELISAs. […] Prior to the addition of clonal phage. wells were incubated with blocking buffer and PSMA antigen or blocking buffer alone. Without washing or aspirating, clonal phage supernatants were then added to the wells and incubated for a short time. Wells were then washed followed by detection of bound phage using a horse radish conjugated anti-M13 antibody.

Row | Binder | phage binding ELISA signal on anti-PSMA Fab
1 | VDVRCMPLWMCSGF [Phage-3645 (Peptide-180 library clone)] | 1.52
2 | TAVMCIPYWMCGGM [Phage-3646 (Peptide-180 library clone)] | 1.52
3 | MVPVCIPLWMCSGF [Phage-3647 (Peptide-180 library clone)] | 1.51
4 | PLVLCIPQWMCQAM [Phage-3648 (Peptide-180 library clone)] | 1.51
5 | LQTLCIPPWMCMGF [Phage-3649 (Peptide-180 library clone)] | 1.5
6 | EQVLCRPAWMCLGF [Phage-3650 (Peptide-180 library clone)] | 1.5
7 | SVVMCVPEWMCQGF [Phage-3651 (Peptide-180 library clone)] | 1.5
8 | PSAVCVPTWMCSGF [Phage-3652 (Peptide-180 library clone)] | 1.5
9 | VQILCRPQWMCEGL [Phage-3653 (Peptide-180 library clone)] | 1.5
10 | LALACVPPWMCQGL [Phage-3654 (Peptide-180 library clone)] | 1.5
11 | VERMCEPLWMCAGL [Phage-3655 (Peptide-180 library clone)] | 1.5
12 | ETSWCTPSWMCTGF [Phage-3656 (Peptide-180 library clone)] | 1.5
13 | SMIYCIPSWMCEGM [Phage-3657 (Peptide-180 library clone)] | 1.5
14 | IDRHCTPSWMCYGF [Phage-3658 (Peptide-180 library clone)] | 1.5

molecular target: T2, PSMA Fab (006 PSMA Fab) (biotinylated (site not stated)); test: clonal phage ELISA on captured PSMA Fab, wells pre-incubated with PSMA antigen as competitor
T2 construct: also called Anti-PSMA Fab

Row | Binder | Phage binding ELISA signal, Anti-PSMA Fab in presence of PSMA
15 | DHKLCKPEWMCAGL [Phage-3659 (peptide-180 library clone)] | 0.0672
16 | MVSHCVPLWMCAGF [Phage-3660 (peptide-180 library clone)] | 0.0616
17 | VAIACTPMWMCTGF [Phage-3661 (peptide-180 library clone)] | 0.113
18 | HVAACVPSWMCTGF [Phage-3662 (peptide-180 library clone)] | 0.0842
19 | EGPLCKPAWMCRGF [Phage-3663 (peptide-180 library clone)] | 0.0963
20 | PVPYCRPIWMCQGL [Phage-3664 (peptide-180 library clone)] | 0.0736
21 | ESRFCVPAWMCAAV [Phage-3665 (peptide-180 library clone)] | 0.089
22 | EVRRCEPSWMCSVV [Phage-3666 (peptide-180 library clone)] | 0.0749
23 | YIQACKPRWMCNGF [Phage-3667 (peptide-180 library clone)] | 0.0874
24 | LQVLCVPDWMCAGF [Phage-3668 (peptide-180 library clone)] | 0.091
25 | GHVYCEPQWMCYGF [Phage-3669 (peptide-180 library clone)] | 0.0791
26 | PELRCHPPWMCTGF [Phage-3670 (peptide-180 library clone)] | 0.0997
27 | ISIKCEPQWMCDGL [Phage-3671 (peptide-180 library clone)] | 0.307
28 | AAKYCEPSWMCYGF [Phage-3672 (peptide-180 library clone)] | 0.105

molecular target: T1, PSMA Fab (006 PSMA Fab); test: as above
Experimental: as §1

Row | Binder | phage binding ELISA signal on anti-PSMA Fab in presence of PSMA
29 | VDVRCMPLWMCSGF [Phage-3645 (Peptide-180 library clone)] | 0.0628
30 | TAVMCIPYWMCGGM [Phage-3646 (Peptide-180 library clone)] | 0.104
31 | MVPVCIPLWMCSGF [Phage-3647 (Peptide-180 library clone)] | 0.0744
32 | PLVLCIPQWMCQAM [Phage-3648 (Peptide-180 library clone)] | 0.0663
33 | LQTLCIPPWMCMGF [Phage-3649 (Peptide-180 library clone)] | 0.0685
34 | EQVLCRPAWMCLGF [Phage-3650 (Peptide-180 library clone)] | 0.0974
35 | SVVMCVPEWMCQGF [Phage-3651 (Peptide-180 library clone)] | 0.0734
36 | PSAVCVPTWMCSGF [Phage-3652 (Peptide-180 library clone)] | 0.0815
37 | VQILCRPQWMCEGL [Phage-3653 (Peptide-180 library clone)] | 0.0669
38 | LALACVPPWMCQGL [Phage-3654 (Peptide-180 library clone)] | 0.0897
39 | VERMCEPLWMCAGL [Phage-3655 (Peptide-180 library clone)] | 0.0832
40 | ETSWCTPSWMCTGF [Phage-3656 (Peptide-180 library clone)] | 0.0752
41 | SMIYCIPSWMCEGM [Phage-3657 (Peptide-180 library clone)] | 0.0844
42 | IDRHCTPSWMCYGF [Phage-3658 (Peptide-180 library clone)] | 0.0562

molecular target: T3, PSMA Fab (SEQ ID NOs: 19, 20) (biotinylated (site not stated)); test: clonal phage ELISA on captured biotinylated PSMA Fab, anti-M13-HRP detection, competitor: PSMA antigen pre-incubated
T3 construct: In the phage ELISA the biotinylated PSMA Fab was captured on neutravidin coated plates; also called Anti-PSMA Fab; 006 PSMA Fab

Row | Binder | phage binding ELISA signal
43 | LVNYCIPPWMCAGF [Phage-3631] | 0.093
44 | ELILCRPSWMCTGL [Phage-3632] | 0.0672
45 | SHALCRPAWMCMGL [Phage-3633] | 0.0783
46 | GTTWCVPTWMCEGL [Phage-3634] | 0.077
47 | EVAMCKPLWMCSGF [Phage-3635] | 0.069
48 | VEPLCRPTWMCMSL [Phage-3636] | 0.0766
49 | AEVKCIPTWMCTGF [Phage-3637] | 0.079
50 | VHQLCIPVWMCSGF [Phage-3638] | 0.0996
51 | YPPLCVPMWMCNGF [Phage-3639] | 0.107
52 | FPAMCKPSWMCTGF [Phage-3640] | 0.082
53 | SNMVCIPSWMCNGF [Phage-3641] | 0.0754
54 | VTMKCQPMWMCQGL [Phage-3642] | 0.0738
55 | ADRVCKPAWMCDLF [Phage-3643] | 0.0527
56 | PNILCKPQWMCAGF [Phage-3644] | 0.0825

molecular target: T4, PSMA Fab (006 PSMA Fab); test: clonal phage ELISA on captured PSMA Fab pre-incubated with PSMA antigen as competitor;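 note: crude clonal phage supernatants added to wells without washing away the PSMA competitor, bound phage detected by HRP-conjugated anti-M13 antibody, reference wells received blocking buffer only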
T4 construct: also called Anti-PSMA Fab
Experimental: as §1

Row | Binder | Phage binding ELISA signal, Anti-PSMA Fab with PSMA antigen
57 | LGKICSPAWMCSGF [Phage-3673] | 0.0608
58 | GTMKCEPAWMCEGF [Phage-3674] | 0.106
59 | DAMMCKPTWMCDGF [Phage-3675] | 0.0662
60 | PEARCIPMWMCERL [Phage-3676] | 0.0885

molecular target: T2, PSMA Fab (006 PSMA Fab); test: clonal phage ELISA on biotinylated PSMA Fab captured on neutravidin plates, anti-M13 HRP detection;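 note: crude clonal phage supernatants tested, before phage were added, wells were pretreated with PSMA antigen in blocking buffer or with blocking buffer only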
Experimental: as §1

Row | Binder | Phage binding ELISA signal, Anti-PSMA Fab
61 | DHKLCKPEWMCAGL [Phage-3659 (peptide-180 library clone)] | 1.5
62 | MVSHCVPLWMCAGF [Phage-3660 (peptide-180 library clone)] | 1.49
63 | VAIACTPMWMCTGF [Phage-3661 (peptide-180 library clone)] | 1.49
64 | HVAACVPSWMCTGF [Phage-3662 (peptide-180 library clone)] | 1.49
65 | EGPLCKPAWMCRGF [Phage-3663 (peptide-180 library clone)] | 1.49
66 | PVPYCRPIWMCQGL [Phage-3664 (peptide-180 library clone)] | 1.49
67 | ESRFCVPAWMCAAV [Phage-3665 (peptide-180 library clone)] | 1.49
68 | EVRRCEPSWMCSVV [Phage-3666 (peptide-180 library clone)] | 1.49
69 | YIQACKPRWMCNGF [Phage-3667 (peptide-180 library clone)] | 1.49
70 | LQVLCVPDWMCAGF [Phage-3668 (peptide-180 library clone)] | 1.49
71 | GHVYCEPQWMCYGF [Phage-3669 (peptide-180 library clone)] | 1.49
72 | PELRCHPPWMCTGF [Phage-3670 (peptide-180 library clone)] | 1.49
73 | ISIKCEPQWMCDGL [Phage-3671 (peptide-180 library clone)] | 1.48
74 | AAKYCEPSWMCYGF [Phage-3672 (peptide-180 library clone)] | 1.48

molecular target: T4, PSMA Fab (006 PSMA Fab); test: as above
Experimental: as §1

Row | Binder | Phage binding ELISA signal, Anti-PSMA Fab
75 | LGKICSPAWMCSGF [Phage-3673] | 1.48
76 | GTMKCEPAWMCEGF [Phage-3674] | 1.48
77 | DAMMCKPTWMCDGF [Phage-3675] | 1.48
78 | PEARCIPMWMCERL [Phage-3676] | 1.48

molecular target: T3, PSMA Fab (SEQ ID NOs: 19, 20); test: clonal phage ELISA on captured biotinylated PSMA Fab, anti-M13-HRP detection, no PSMA antigen
Experimental: as §1

Row | Binder | phage binding ELISA signal
79 | LVNYCIPPWMCAGF [Phage-3631] | 1.54
80 | ELILCRPSWMCTGL [Phage-3632] | 1.54
81 | SHALCRPAWMCMGL [Phage-3633] | 1.54
82 | GTTWCVPTWMCEGL [Phage-3634] | 1.54
83 | EVAMCKPLWMCSGF [Phage-3635] | 1.53
84 | VEPLCRPTWMCMSL [Phage-3636] | 1.53
85 | AEVKCIPTWMCTGF [Phage-3637] | 1.53
86 | VHQLCIPVWMCSGF [Phage-3638] | 1.53
87 | YPPLCVPMWMCNGF [Phage-3639] | 1.53
88 | FPAMCKPSWMCTGF [Phage-3640] | 1.53
89 | SNMVCIPSWMCNGF [Phage-3641] | 1.53
90 | VTMKCQPMWMCQGL [Phage-3642] | 1.52
91 | ADRVCKPAWMCDLF [Phage-3643] | 1.52
92 | PNILCKPQWMCAGF [Phage-3644] | 1.52
